Data taken from paper PMC9482650, “Quantitative fragmentomics allow affinity mapping of interactomes” (Nature Communications, 2022).

Legend:
Assay in all cases: holdup assay
Design in all cases: key: below the threshold = too weak to quantify, mostly under pKd 3.1 to 4
FRMPD2_2, Q68DX3 = biological target: FRMPD2_2, Q68DX3
IL16_4, Q14005 = biological target: IL16_4, Q14005
PARD3_3, Q8TEW0 = biological target: PARD3_3, Q8TEW0
HTRA4, P83105 = biological target: T1, HTRA4, P83105
T1 sequence (P83105 378-476, limits assumed, looked up): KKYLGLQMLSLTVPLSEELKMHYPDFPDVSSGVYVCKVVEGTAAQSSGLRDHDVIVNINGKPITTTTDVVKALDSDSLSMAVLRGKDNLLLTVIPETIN

PCLO, Q9Y6V0 = biological target: T2, PCLO, Q9Y6V0
T2 sequence (Q9Y6V0 4491-4600, limits assumed, looked up): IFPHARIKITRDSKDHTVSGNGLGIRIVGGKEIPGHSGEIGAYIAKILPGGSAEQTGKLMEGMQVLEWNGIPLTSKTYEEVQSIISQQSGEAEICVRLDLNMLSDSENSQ

GORASP1, Q9BQQ3 = biological target: GORASP1, Q9BQQ3
IL16_3, Q14005 = biological target: IL16_3, Q14005
GRIP1_7, Q9Y3R0 = biological target: T3, GRIP1_7, Q9Y3R0
T3 sequence (Q9Y3R0 999-1096, limits assumed, looked up): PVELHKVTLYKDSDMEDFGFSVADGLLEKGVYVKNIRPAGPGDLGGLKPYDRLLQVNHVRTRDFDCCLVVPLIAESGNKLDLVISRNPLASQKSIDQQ

RADIL, Q96JH8 = biological target: T4, RADIL, Q96JH8
T4 sequence (Q96JH8 971-1071, limits assumed, looked up): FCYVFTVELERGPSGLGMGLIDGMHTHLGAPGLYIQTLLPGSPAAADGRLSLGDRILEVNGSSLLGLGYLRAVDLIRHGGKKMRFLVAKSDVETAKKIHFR

DLG5_1, Q8TDM6 = biological target: DLG5_1, Q8TDM6
FRMPD4, Q14CM0 = biological target: FRMPD4, Q14CM0
MPP6, Q9NZW5 = biological target: T5, MPP6, Q9NZW5
T5 sequence (Q9NZW5 125-219, limits assumed, looked up): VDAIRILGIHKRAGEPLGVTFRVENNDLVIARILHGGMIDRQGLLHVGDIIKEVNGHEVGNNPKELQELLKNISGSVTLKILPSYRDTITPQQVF

HTRA1, Q92743 = biological target: HTRA1, Q92743
SNTG1, Q9NSN8 = biological target: T6, SNTG1, Q9NSN8
T6 sequence (Q9NSN8 52-150, limits assumed, looked up): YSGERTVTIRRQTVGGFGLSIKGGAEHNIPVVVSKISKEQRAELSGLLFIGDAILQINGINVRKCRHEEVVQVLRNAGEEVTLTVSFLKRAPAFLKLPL

MPDZ_12, O75970 = biological target: T7, MPDZ_12, O75970
T7 sequence (O75970 1857-1958, limits assumed, looked up): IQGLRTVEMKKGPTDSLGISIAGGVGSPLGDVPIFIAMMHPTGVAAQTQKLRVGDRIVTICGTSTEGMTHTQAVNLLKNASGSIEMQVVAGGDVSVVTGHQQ

LIMK2, P53671 = biological target: LIMK2, P53671
LNX1_3, Q8TBB1 = biological target: LNX1_3, Q8TBB1
Inadl_3, Q8NI35 = biological target: Inadl_3, Q8NI35
Inadl_5, Q8NI35 = biological target: Inadl_5, Q8NI35
SNTB1, Q13884 = biological target: T8, SNTB1, Q13884
T8 sequence (Q13884 107-205, limits assumed, looked up): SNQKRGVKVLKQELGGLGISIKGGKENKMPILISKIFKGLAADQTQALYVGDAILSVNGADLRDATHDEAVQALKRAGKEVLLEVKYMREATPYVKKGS

GRASP, Q7Z6J2 = biological target: GRASP, Q7Z6J2
LNX2_2, Q8N448 = biological target: T9, LNX2_2, Q8N448
T9 sequence (Q8N448 334-432, limits assumed, looked up): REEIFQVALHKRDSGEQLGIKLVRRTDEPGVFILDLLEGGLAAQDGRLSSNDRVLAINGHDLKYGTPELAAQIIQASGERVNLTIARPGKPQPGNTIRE

PDZRN3_1, Q9UPQ7 = biological target: T10, PDZRN3_1, Q9UPQ7
T10 sequence (Q9UPQ7 244-349, limits assumed, looked up): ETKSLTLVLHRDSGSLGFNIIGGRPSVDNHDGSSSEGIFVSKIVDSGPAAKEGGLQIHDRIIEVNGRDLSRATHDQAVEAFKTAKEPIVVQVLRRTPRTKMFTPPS

FRMPD2_1, Q68DX3 = biological target: FRMPD2_1, Q68DX3
HTRA3, P83110 = biological target: T11, HTRA3, P83110
T11 sequence (P83110 354-453, limits assumed, looked up): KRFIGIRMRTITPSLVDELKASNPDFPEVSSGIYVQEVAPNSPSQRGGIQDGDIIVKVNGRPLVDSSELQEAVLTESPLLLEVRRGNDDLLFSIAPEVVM

NHERF4_1, Q86UT5-2 = biological target: NHERF4_1, Q86UT5-2
[1] = plain residues with an end cap or a label only (N-terminal biotin on a linker: ttds)
[2] = plain residues with an end cap or a label only (N-terminal biotin on a linker: ado-ado)

Chain of PARD3_3, Q8TEW0 (Q8TEW0 582-685): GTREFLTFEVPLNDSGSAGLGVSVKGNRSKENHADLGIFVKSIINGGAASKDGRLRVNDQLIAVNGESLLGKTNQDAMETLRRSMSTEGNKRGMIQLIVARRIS
Chain of GORASP1, Q9BQQ3 (Q9BQQ3 1-208): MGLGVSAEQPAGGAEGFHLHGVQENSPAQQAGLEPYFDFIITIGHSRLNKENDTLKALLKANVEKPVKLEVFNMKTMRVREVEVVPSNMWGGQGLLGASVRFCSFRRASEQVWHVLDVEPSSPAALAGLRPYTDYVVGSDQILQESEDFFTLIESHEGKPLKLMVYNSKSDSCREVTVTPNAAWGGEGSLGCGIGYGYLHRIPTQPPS
Chain of IL16_3, Q14005 (Q14005 1107-1207): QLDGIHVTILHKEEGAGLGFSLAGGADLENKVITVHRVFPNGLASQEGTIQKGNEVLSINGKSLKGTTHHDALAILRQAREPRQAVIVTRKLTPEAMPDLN
Chain of Inadl_5, Q8NI35 (Q8NI35 673-780): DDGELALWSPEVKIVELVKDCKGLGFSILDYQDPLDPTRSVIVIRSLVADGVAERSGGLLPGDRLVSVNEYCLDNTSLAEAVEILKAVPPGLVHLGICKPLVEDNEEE
Chain of HTRA1, Q92743 (Q92743 360-477): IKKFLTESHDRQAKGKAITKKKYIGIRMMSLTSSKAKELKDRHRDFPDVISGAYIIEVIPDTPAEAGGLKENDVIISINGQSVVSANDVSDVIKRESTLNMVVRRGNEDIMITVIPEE
Chain of FRMPD4, Q14CM0 (Q14CM0 67-160): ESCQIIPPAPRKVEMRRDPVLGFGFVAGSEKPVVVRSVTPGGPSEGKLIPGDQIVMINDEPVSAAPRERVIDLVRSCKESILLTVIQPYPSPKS
Chain of IL16_4, Q14005 (Q14005 1229-1329): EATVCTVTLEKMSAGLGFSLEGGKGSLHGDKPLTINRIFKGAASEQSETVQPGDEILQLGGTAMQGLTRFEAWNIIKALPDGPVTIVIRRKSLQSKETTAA
Chain of NHERF4_1, Q86UT5-2 (Q86UT5 other isoform, or with tags, fused parts or gaps): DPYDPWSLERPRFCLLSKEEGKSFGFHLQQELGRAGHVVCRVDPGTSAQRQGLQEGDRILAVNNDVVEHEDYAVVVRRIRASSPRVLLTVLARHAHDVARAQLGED
Chain of FRMPD2_1, Q68DX3 (Q68DX3 770-861): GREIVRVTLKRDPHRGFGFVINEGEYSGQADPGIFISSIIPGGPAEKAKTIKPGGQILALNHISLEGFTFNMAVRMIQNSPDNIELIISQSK
Chain of DLG5_1, Q8TDM6 (Q8TDM6 617-713): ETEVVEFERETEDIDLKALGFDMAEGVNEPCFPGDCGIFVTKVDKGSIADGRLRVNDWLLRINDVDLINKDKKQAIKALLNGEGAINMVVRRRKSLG
Chain of LIMK2, P53671 (P53671 143-248): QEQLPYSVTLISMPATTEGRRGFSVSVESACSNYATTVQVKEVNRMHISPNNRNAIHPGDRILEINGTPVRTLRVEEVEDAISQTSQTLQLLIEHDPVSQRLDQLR
Chain of GRASP, Q7Z6J2 (Q7Z6J2 96-193): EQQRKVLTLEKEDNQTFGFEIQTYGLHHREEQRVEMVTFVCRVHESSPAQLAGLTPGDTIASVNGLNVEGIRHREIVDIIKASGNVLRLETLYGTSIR
Chain of Inadl_3, Q8NI35 (Q8NI35 359-469): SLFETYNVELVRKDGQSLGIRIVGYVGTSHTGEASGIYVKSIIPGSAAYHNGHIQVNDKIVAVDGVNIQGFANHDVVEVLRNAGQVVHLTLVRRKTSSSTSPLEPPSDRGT
Chain of FRMPD2_2, Q68DX3 (Q68DX3 944-1038): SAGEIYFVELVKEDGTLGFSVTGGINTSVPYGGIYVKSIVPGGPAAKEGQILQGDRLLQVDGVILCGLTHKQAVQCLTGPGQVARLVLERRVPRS
Chain of LNX1_3, Q8TBB1 (Q8TBB1 500-596): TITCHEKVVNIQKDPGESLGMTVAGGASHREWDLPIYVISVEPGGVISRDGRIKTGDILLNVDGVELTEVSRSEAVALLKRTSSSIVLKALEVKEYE

Binder: PSRDRKETSI [RALBP1, Q15311]
- pKd (FRMPD2_2, Q68DX3; [1]): 3.31
- pKd (IL16_4, Q14005; [1]): below the threshold
- pKd (PARD3_3, Q8TEW0; [1]): below the threshold
- pKd (HTRA4, P83105; [1]): below the threshold
- pKd (PCLO, Q9Y6V0; [1]): below the threshold
- pKd (GORASP1, Q9BQQ3; [1]): 3.38
- pKd (IL16_3, Q14005; [1]): below the threshold
- pKd (GRIP1_7, Q9Y3R0; [1]): 3.49
- pKd (RADIL, Q96JH8; [1]): below the threshold
- pKd (DLG5_1, Q8TDM6; [1]): below the threshold
- pKd (FRMPD4, Q14CM0; [1]): below the threshold
- pKd (MPP6, Q9NZW5; [1]): below the threshold
- pKd (HTRA1, Q92743; [1]): below the threshold
- pKd (SNTG1, Q9NSN8; [1]): 3.76
- pKd (MPDZ_12, O75970; [1]): below the threshold
- pKd (LIMK2, P53671; [1]): below the threshold
- pKd (LNX1_3, Q8TBB1; [1]): below the threshold
- pKd (Inadl_3, Q8NI35; [1]): below the threshold
- pKd (Inadl_5, Q8NI35; [1]): below the threshold
- pKd (SNTB1, Q13884; [1]): 3.97
- pKd (GRASP, Q7Z6J2; [1]): below the threshold
- pKd (LNX2_2, Q8N448; [1]): below the threshold
- pKd (PDZRN3_1, Q9UPQ7; [1]): 4.37
- pKd (FRMPD2_1, Q68DX3; [1]): below the threshold
- pKd (HTRA3, P83110; [1]): below the threshold
- pKd (NHERF4_1, Q86UT5-2; [1]): 3.36

Binder: EKPIDSETKM [SLC1A3, P43003]
- pKd (FRMPD2_2, Q68DX3; [2]): below the threshold
- pKd (IL16_4, Q14005; [2]): below the threshold
- pKd (PARD3_3, Q8TEW0; [2]): below the threshold
- pKd (HTRA4, P83105; [2]): below the threshold
- pKd (PCLO, Q9Y6V0; [2]): below the threshold
- pKd (GORASP1, Q9BQQ3; [2]): below the threshold
- pKd (IL16_3, Q14005; [2]): below the threshold
- pKd (GRIP1_7, Q9Y3R0; [2]): below the threshold
- pKd (RADIL, Q96JH8; [2]): below the threshold
- pKd (DLG5_1, Q8TDM6; [2]): below the threshold
- pKd (FRMPD4, Q14CM0; [2]): below the threshold
- pKd (MPP6, Q9NZW5; [2]): below the threshold
- pKd (HTRA1, Q92743; [2]): below the threshold
- pKd (SNTG1, Q9NSN8; [2]): below the threshold
- pKd (MPDZ_12, O75970; [2]): below the threshold
- pKd (LIMK2, P53671; [2]): below the threshold
- pKd (LNX1_3, Q8TBB1; [2]): below the threshold
- pKd (Inadl_3, Q8NI35; [2]): below the threshold
- pKd (Inadl_5, Q8NI35; [2]): below the threshold
- pKd (SNTB1, Q13884; [2]): below the threshold
- pKd (GRASP, Q7Z6J2; [2]): below the threshold
- pKd (LNX2_2, Q8N448; [2]): below the threshold
- pKd (PDZRN3_1, Q9UPQ7; [2]): below the threshold
- pKd (FRMPD2_1, Q68DX3; [2]): below the threshold
- pKd (HTRA3, P83110; [2]): below the threshold
- pKd (NHERF4_1, Q86UT5-2; [2]): below the threshold
